Series [1] deals with recombinant and mature MDA1 (Arabidopsis thaliana) (UniProt F4JVI3). Kind of series: SEC. (Size exclusion chromatography separates by hydrodynamic size, large species first.)
The target of series [2] is T1, rMDA1 (mature MDA1) (Arabidopsis thaliana, UniProt F4JVI3 44-493).
T1 sequence: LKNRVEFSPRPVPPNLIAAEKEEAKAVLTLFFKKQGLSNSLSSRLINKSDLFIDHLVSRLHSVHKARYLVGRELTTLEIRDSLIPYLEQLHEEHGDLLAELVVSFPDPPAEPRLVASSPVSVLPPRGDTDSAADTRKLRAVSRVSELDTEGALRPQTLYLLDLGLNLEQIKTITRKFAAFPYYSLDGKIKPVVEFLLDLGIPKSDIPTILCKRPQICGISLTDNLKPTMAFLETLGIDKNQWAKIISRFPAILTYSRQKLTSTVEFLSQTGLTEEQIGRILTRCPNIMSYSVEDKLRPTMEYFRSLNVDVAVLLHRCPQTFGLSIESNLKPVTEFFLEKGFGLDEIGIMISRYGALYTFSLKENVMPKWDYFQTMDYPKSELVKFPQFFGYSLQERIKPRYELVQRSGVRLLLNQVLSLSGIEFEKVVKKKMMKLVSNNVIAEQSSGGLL
Briefly: EMSA. (In general: In EMSA bound probe runs differently from free probe, usually more slowly.)

Series [3] concerns the target T1, rMDA1 (mature MDA1). Kind of series: EMSA. This is another data set of the same source.
In series [4] the target is T1, rMDA1 (mature MDA1). Briefly: EMSA. This is another data set of the same source.
Series [5] addresses T1, rMDA1 (mature MDA1). Briefly: EMSA. The source holds these as a separate data set.
In series [6] the target is T1, rMDA1 (mature MDA1). Kind of series: EMSA. This is another data set of the same source.

Data on 12 molecules can be found in paper PMC7496394.

Where two headings read alike, the source gives them in different places.

The term stoichiometry N denotes a count of units in the complex or per binding partner. For “recombinant and mature MDA1 (from UniProt F4JVI3 130-493) (domain or fragment)”, in series [1], the stoichiometry N was determined as 2.

B1: ssDNA random probe (ssDNA)
DNA: GATATGCGCGAATTCCTGTAGAACGAACACTAGAAGAAA
Take B1: the binding result in the series with rMDA1 (mature MDA1) [2] is given as “no binding”.

B2: dsDNA random probe (dsDNA)
DNA 1: GATATGCGCGAATTCCTGTAGAACGAACACTAGAAGAAA
DNA 2: TTTCTTCTAGTGTTCGTTCTACAGGAATTCGCGCATATC
Regarding B2, the binding result with rMDA1 (mature MDA1) [3] was “binds”.

B3: psbE E4 (dsDNA)
DNA 1: ATTGACGATCTCACAAAGATGCAATCT
DNA 2: AGATTGCATCTTTGTGAGATCGTCAAT
Turning to B3, the binding result with rMDA1 (mature MDA1) [4] is listed as “binds”.

B4: ndhA A10 (dsDNA)
DNA 1: TATTGGGAATCATAACAGGTGTACTAG
DNA 2: CTAGTACACCTGTTATGATTCCCAATA
Turning to B4, the binding result in the series with rMDA1 (mature MDA1) [4] is “binds”.

B5: psbE E5 (dsDNA)
DNA 1: TTAATTTACTTATTCATCTTTTACAGA
DNA 2: TCTGTAAAAGATGAATAAGTAAATTAA
Turning to B5, in the series with rMDA1 (mature MDA1) [4], the binding result is “no binding”.

B6: 5' psbE sRNA (ssRNA)
RNA: GUAGACUCUAAAAAUACCCUUGGUACUUU
In the case of B6, the binding result in the series with rMDA1 (mature MDA1) [5] is reported as “no binding”.

B7: 5' ndhA sRNA (ssRNA)
RNA: UGGCUGAUAUUAUGACGAUAC
B7: the binding result with rMDA1 (mature MDA1) [5] is on record as “no binding”.

B8: 3' psbJ sRNA (ssRNA)
RNA: UCUGAUUCGAGGGGGUCCCGUUGAAC
As to B8, the binding result in the series with rMDA1 (mature MDA1) [5] is recorded as “no binding”.

B9: ssRNA random probe (ssRNA)
RNA: GAUAUGCGCGAAUUCCUGUAGAACGAACACUAGAAGAAA
In the case of B9, the binding result with rMDA1 (mature MDA1) [6] was “binds”.

B10: dsRNA random probe (dsRNA)
RNA 1: GAUAUGCGCGAAUUCCUGUAGAACGAACACUAGAAGAAA
RNA 2: UUUCUUCUAGUGUUCGUUCUACAGGAAUUCGCGCAUAUC
Regarding B10, the binding result with rMDA1 (mature MDA1) [2] is “no binding”.

B11: 3' ndhA sRNA (ssRNA)
RNA: GUUUUAAACAAGAGACAGAAACAAAGA
In the case of B11, the binding result with rMDA1 (mature MDA1) [5] is listed as “no binding”.
